Here are results for one molecule from patent US20240294624A1, “ANTI-ERYTHROPOIETIN ANTIBODY” (ANDREMACON S.R.L., priority 2021, published 2024).

One data set concerns the target T1, murine EPO (mEPO) (Mus musculus, UniProt P07321).
T1 sequence (P07321 27-192): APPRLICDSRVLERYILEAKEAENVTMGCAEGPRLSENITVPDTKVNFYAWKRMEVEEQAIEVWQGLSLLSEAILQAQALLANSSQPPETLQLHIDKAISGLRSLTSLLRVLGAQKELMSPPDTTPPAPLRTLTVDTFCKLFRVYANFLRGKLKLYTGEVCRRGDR
Put plainly: SPR binding kinetics. The settings on record: m-EPO. The method, then:
FIG. 26A SPR technology can allow to determine the plasma and tissue concentrations of antibody, on the basis of an appropriate calibration curve. FIG. 26B Blood samples were collected from the retroorbital plexus under isoflurane anesthesia at 4, 24, 48, 72, 120, and 168 h from treatment.
SPR is a technology widely used to study in real time the interaction between two unlabeled molecules, one (the “ligand”) immobilized on a sensor chip, and the other (the “analyte”) flowing through a microfluidic system over the chip surface. Binding is measured in real time as a change in the refractive index on the surface. The most common application of SPR is to determine the association/dissociation binding constants for biomolecular interactions, but its versatility allows many other uses, including label-free immunoassays and concentration determination of biologics.
The study was carried out using an up-to-date SPR apparatus, the ProteOn XPR36 Protein Interaction Array system (Bio-Rad Laboratories). This system is mainly characterized by the presence of six flow channels which can uniformly immobilize up to six ligands on parallel strips of the same sensor surface.
In addition, SPR analysis was performed for anti-EPO (C4) to evaluate the binding kinetics parameters.
A general note: In SPR one partner is held on a chip, and binding of the other changes the refractive index at the surface.

Data set [1] can be described thus: Plasma pharmacokinetics by SPR after single i.v. injection. The data set is classed as in vivo. The settings on record: mice with glioblastoma xenograft, single i.v. 10 mg/kg. On the procedure:
The ligands hEPO and BSA (Sigma-Aldrich, Italy, used as reference) were immobilized using amine-coupling chemistry on parallel channels of a CMD700L (Xantec GmbH) sensor chip. Briefly, surface was activated with sulfo NHS/EDC according to manufacturer's recommendation; hEPO and BSA were diluted at a concentration of 400 and 30 μg/mL in acetate buffer, pH 4.0 and 4.5, respectively. These solutions were flowed for 5 min at a rate of 30 μL/min over the activated chip surface. The remaining activated groups were blocked with ethanolamine, pH 8.0.
The analyte solutions (e.g. control plasma containing spiked anti-EPO (C4) antibody, or plasma/tissue samples from treated mice) were injected so that they flowed simultaneously on both immobilized hEPO and the reference surface. Dissociation was measured in the following 10 minutes. All of these assays were carried out at 25° C. […]
This method can thus allow to determine the plasma and tissue concentrations of antibody, on the basis of an appropriate calibration curve (FIG. 26A). The Lower Limit of Detection calculated was ˜0.5 μg/mL (˜3.3 nM), which corresponding to a LLD of 5 μg/mL in undiluted plasma.
The pharmacokinetic (PK) profile of anti-EPO (C4) was assessed after single i.v. injection in mice models for glioblastoma. In particular, the antibody concentrations were measured at different time points after treatment (from 6 hours to 1 week) in: […]

The next data set deals with human healthy astrocytes. Put plainly: MTT cell viability assay. The data set is classed as cell-based. The settings on record: 96 hours. The source says: L. Human healthy Astrocytes is a commercial cell line of human healthy astrocytes
On the technique in general: Formazan colour is commonly taken as a measure of viable cells.

The test system of data set [2] is primary anaplastic astrocytoma cells. The experiment in a line: MTT cell viability assay. The data set is classed as cell-based, human. The settings on record: 96 hours, anti-EPO (C4) 6 μg/ml, TMZ 100 μM, FTY720 100 nM. The source says:
D. Primary anaplastic astrocytoma cancer stem cells isolated from tumor biopsy of a cohort of patients affected by high grade glioma, in particular, anaplastic astrocytoma (WHO, grade III);

In another data set the test system is SHSY-5Y. Put plainly: MTT cell viability assay. It counts as cell-based, human. The settings on record: 96 hours, 6 μg/ml. An excerpt:
K. Neuroblastoma cell line (SHSY-5Y) line is a cell line isolated from a bone marrow biopsy taken from a patient with neuroblastoma. SHSY cells are often used as in vitro models of oncological pathology and neuronal differentiation.

In another data set the test system is S1PR1. The experiment in a line: S1PR1 expression by immunofluorescence. It counts as cell-based, human. The settings on record: S-ECs of pathological synovium. The method, then:
ECs (1×10^4/well) were seeded into μ-Slide 8 Well, ibiTreat (Ibidi, Martinsried, Germany) collagen-coated. When cells reached the desired confluence, were fixed in paraformaldehyde 4% for 20 min at RT, washed twice with D-PBS and incubated with 0.1 M glycine to quench auto-fluorescence. Then, the coverslip was incubated with PBS+0.25% Triton ×100 to permeabilize cell membranes and then blocked in PBS+5% BSA for 30 min at RT. Incubation with anti-S1 PR1 primary antibody diluted in blocking buffer was performed overnight at 4° C. The following day, primary antibody was removed and fluorescent secondary antibody labelling was then added for 45 min at RT, protected from light, washed and finally, the coverlips were mounted with ProLong Gold Antifade Mountant (ThermoFisher). Immunolabeling was acquired using an inverted DM14 microscope equipped with DFC350×CCDcamera and LAS-X software (all from Leica Microsystems, Wetzlar, Germany). […] S1 PR1 levels are increased in pro-tumoral and pro-angiogenic conditions, when intracellular and extracellular levels of S1 P are presented. It is possible therefore to hypothesize the use of the anti-EPO (C4) antibody, such as in direct intra-articular treatment in the form of gel or suspension, in association or not with “coagulation factors and their derivatives” and also comprising FTY720 and negative modulators of the sphingosine-1-phosphate pathway.

The next data set deals with A2780. The experiment in a line: MTT cell viability assay. The settings on record: 96 hours, 6 μg/ml. It counts as cell-based, human. The source says:
I. Ovarian cancer cell line (A2780); ovarian cancer cells used in toxicity testing, drug screening and genetic cancer studies.

B1: anti-EPO (C4): isolated anti-Erythropoietin monoclonal antibody, VL SEQ ID NO:6, VH SEQ ID NO:14, hybridoma DSM ACC 3370 (antibody, listed as Homo sapiens, V domains shown)
VH: EVKLQESGGGLVQPGGSLKLSCAASGFTFSTYTMSWVRQTPEKRLEWVAYISNGGDRTYYPDTVKGRFTISRDDAKNTLFLQMSSLKSEDTAMYYCARHNITTVPFTMDYWGQGTSVTVSS
VL: DIVLTQSPASLAVSLGQRATISCRASESVDYYGTGLMQWYQQRPGQPPKLLIYGASNVGSGVPARFSGSGSGTDFSLNIHPVEGDDIAMYFCQQTRKVPSTFGGGTKLEIK
modifications: VH amino acid sequence; VL amino acid sequence
For the molecule B1, in the data set with murine EPO (mEPO), the kd amounted to 0.000669 s⁻¹. In the data set with murine EPO (mEPO) (rounded), binding was characterised by a dissociation constant (Kd) of 1 µM. Also, the half-time of elimination result in data set [1] was “about 4.4 days”. The “effect on human healthy astrocyte viability” value in the data set on human healthy astrocytes was “did not affected human healthy astrocyte viability”. For the same molecule, the “cells initially seeded dead” value in data set [2] is roughly 66%. Moreover, the figures for the “cells initially plated dead” value in the data set with SHSY-5Y and in the data set on A2780 were 62% and 63%, respectively. The S1PR1 expression levels entry in the data set with S1PR1 was “decreased expression levels of S1 PR1”.

A word on the Kd: it is the concentration at which binding is half-saturated. Read a high Kd as weaker binding.
